B1: YpdE, M42 aminopeptidase of E. coli (enzyme, UniProt P77585 1-345, looked up)
chain: MDLSLLKALSEADAIASSEQEVRQILLEEADRLQKEVRFDGLGSVLIRLNESTGPKVMICAHMDEVGFMVRSISREGAIDVLPVGNVRMAARQLQPVRITTREECKIPGLLDGDRQGNDVSAMRVDIGARSYDEVMQAGIRPGDRVTFDTTFQVLPHQRVMGKAFDDRLGCYLLVTLLRELHDAELPAEVWLVASSSEEVGLRGGQTATRAVSPDVAIVLDTACWAKNFDYGAANHRQIGNGPMLVLSDKSLIAPPKLTAWVETVAAEIGVPLQADMFSNGGTDGGAVHLTGTGVPTVVMGPATRHGHCAASIADCRDILQMQQLLSALIQRLTRETVVQLTDFR
notes: YpdE, one of three M42 aminopeptidases of E. coli; Only named in the discussion as unpublished data; the construct is not described; copies: 12
B2: TmPep1050 protein of Thermotoga maritima (TM1050 ORF) (enzyme, UniProt Q9X0E0 1-331, looked up)
chain: MKELIRKLTEAFGPSGREEEVRSIILEELEGHIDGHRIDGLGNLIVWKGSGEKKVILDAHIDEIGVVVTNVDDKGFLTIEPVGGVSPYMLLGKRIRFENGTIGVVGMEGETTEERQENVRKLSFDKLFIDIGANSREEAQKMCPIGSFGVYDSGFVEVSGKYVSKAMDDRIGCAVIVEVFKRIKPAVTLYGVFSVQEEVGLVGASVAGYGVPADEAIAIDVTDSADTPKAIKRHAMRLSGGPALKVKDRASISSKRILENLIEIAEKFDIKYQMEVLTFGGTNAMGYQRTREGIPSATVSIPTRYVHSPSEMIAPDDVEATVDLLIRYLGA
notes: TmPep1050, M42 aminopeptidase of Thermotoga maritima, product of the TM1050 ORF carried by the JCSG plasmid TmCD00089984; predicted molecular weight of the monomer 37.5 kDa; the tag of the JCSG construct is not described; also called 3ISX; source: E. coli MC1061, plasmid TmCD00089984, purified (heat step 60°C, Ni-NTA IMAC, Superdex 200)

Tests used:
[1] = target: the molecule itself; assay: not stated; unpublished data; oligomeric state of YpdE, method not given
[2] = target: the molecule itself; assay: SEC; gel filtration on Superdex 200 (16/70 column), final step of the purification, 50 mM Tris, 300 mM NaCl pH 7.3; for CelM all buffers with 1 mM glutathione; oligomer size from the apparent mass at elution

| Protein | stoichiometry N [1] | stoichiometry N [2] |
| --- | --- | --- |
| B1 | 12 | – |
| B2 | – | 2 |

Reference: article PMC3511314, “Functional Characterization of Two M42 Aminopeptidases Erroneously Annotated as Cellulases” (PLoS ONE, 2012)
